Read-outs that look alike come from different tables or passages of the source. Values belong to the binder of their own block, whether it stands above or below them.
Columns and labels:
[1] = target: T1, full-length human PD1 expressed on NS1 cells (PD1-NS1) (human, UniProt Q15116 25-288); assay: FACS on PD1-NS1 cells, PE-anti-human kappa
T1 construct: whole, on cells; also called surface-expressed PD1; PD1 expressing cell line

[2] = target: T2, PD1 extracellular domain, without fusion to other proteins (human, UniProt Q15116 25-170); assay: ELISA, plate coated with PD1 extracellular domain without Fc fusion, OD405
T2 construct: extracellular domain; also called unfused PD1; monomeric PD1
Description: (§1) ELISA was used to compare the PD1 binding activities of the new and previous anti-PD1 antibodies. The ELISA coating antigen was a recombinant protein of the extracellular domain of PD1, without fusion to other proteins so that the ELISA measured binding activities specific to PD1.

[3] = target: T2, PD1 extracellular domain, without …; assay: Biacore (SPR), antibody immobilized on the sensor chip, PD1 extracellular domain in flow
Protocol: In this assay, antibodies were immobilized on sensor chips, and PD1 extracellular domain, the same protein used in the ELISA experiment in FIG. 5C, flowed through sensor chip. The kinetics of PD1/antibody interaction was measured in real time. The table lists the association rate constant (kₐ), dissociation rate constant (kd) and equilibrium dissociation constant (KD) for each antibody.
Biacore analysis of the kinetics of the interaction between anti-PD1 antibodies and PD1 was performed by Affina Biotechnologies. Given the quantitative and sensitive nature of the assay, non-physiological modifications of the antibodies and PD1 were minimized. […] The PD1-Fc fusion protein contains a TEV protease cleavage site. After TEV digest, the PD1 portion was separated from the Fc region. […] However, in the context of the PD-Fc fusion, PD1 is dimerized through the Fc region and may engage in bivalent interactions with IgG antibodies. The avidity effect can cause major deviations from the actual binding affinity between monomeric PD1 and single antigen-binding site. Separation of PD1 from the Fc portion prevented this error. In the biacore assay, the antibodies were immobilized on sensor chips and PD1 was passed over the immobilized antibodies. Association and dissociation of antibodies and PD1 were detected in real time.

[4] = target: T2, PD1 extracellular domain, without …; assay: ELISA, plate coated with PD1 extracellular domain without Fc fusion, OD405; remark: listed apart in the source
Description: as §1
In this ELISA experiment, PD1 extracellular domain, without Fc fusion, was coated on the ELISA plate.

[5] = target: T1, full-length human PD1 expressed on NS1 …; assay: FACS on PD1-NS1 cells, PE-anti-human kappa; remark: listed apart in the source
Protocol: To test the binding of anti-PD1 antibodies to surface expressed PD1, full-length human PD1 in mouse plasmacytoma cell line, NS1, was expressed. […] A construct that expresses the full length human PD1 was transfected into NS1 cells, and clones with stable integration of the expression construct were obtained. […] For the FACS analysis in FIG. 5B, the PD1-NS1 cells were incubated with anti-PD1 antibodies. […] The FACS staining reaction was analyzed on Attune NXT FACS machine, and the data were plotted with FlowJo 10 software.

T2 sequence (Q15116 25-170): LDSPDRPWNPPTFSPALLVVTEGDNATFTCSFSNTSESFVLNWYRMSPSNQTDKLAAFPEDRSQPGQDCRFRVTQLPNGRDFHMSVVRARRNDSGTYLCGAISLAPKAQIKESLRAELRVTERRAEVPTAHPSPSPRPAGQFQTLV
T1 sequence (Q15116 25-288): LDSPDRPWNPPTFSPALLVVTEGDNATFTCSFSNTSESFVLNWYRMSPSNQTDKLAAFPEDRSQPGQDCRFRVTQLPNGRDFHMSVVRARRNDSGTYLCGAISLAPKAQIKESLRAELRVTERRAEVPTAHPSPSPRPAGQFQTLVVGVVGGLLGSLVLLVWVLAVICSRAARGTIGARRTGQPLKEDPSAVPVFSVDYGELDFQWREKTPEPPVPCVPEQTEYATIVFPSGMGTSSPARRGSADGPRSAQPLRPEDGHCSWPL

- binding result [1]: binds
- binding result [2]: binds
B1: M1-3 (antibody, V domains shown)
VH: QEWLVESGGDVVQPGGSLRLSCATSKVTFNDFGIHWVRQAPGKGLEWVAIIWYDGSRNHYADSVRGRFTLSRDNSKNMVHLHMSSLRTEDTAMYYCARGIHSNDDYWGQGTMVTVSS
VL: EIVLTQSPATLSLSPGERATLSCRTSQSVSSDLAWFQQKPGQAPRLFIFDASKRVNGIPARFSGSGSGTDFTLTISSLEPEDFAVYYCQQRTDWPLTFGGGSRVEIK
notes: Expressed as human IgG4/kappa in 293F or Expi293 cells; also called 319-9-17

- binding result [1]: binds
- binding result [2]: binds
B2: M1-4 (antibody, V domains shown)
VH: QVQLVESGGDVVQPGGSLRLSCAVSGVTFGDFGFEWVRQAPGKGLEWVAVIWYDGSRKHYAESVRGRFTISRDNSRNMMYLEMTGLRVEDTAKYYCTRSHSHEDYWGQGTLVTVSS
VL: EIVLTQSPATLSLSPGERATLSCRASQSISNYLAWFQQKSGQAPRLIIHDAFKRAAGIPTRFSGSGSGTDFTLTISSLEPEDFAVYYCQQRDNWPLNFGGGTKVEIK
notes: Expressed as human IgG4/kappa in 293F or Expi293 cells; also called 319-9-27

- binding result [1]: binds
- binding result [2]: binds
B3: M1-6 (antibody, V domains shown)
VH: QVQLVESGGDVVQSGGSLRLSCAVSGVVFSDYGFEWVRQAPGKGLEWVAVIWYDGSRKHYADSVQGRFTISRDNFRNMLYLQMTGLRVEDTAKYYCTRSHSHEDYWGQGTLVTVSS
VL: EIVLTQSPATLSLSPGERATLSCGASQNIDNSLAWFQQKPGQAPRLIIYDASKRATGIPARFSGSGSGTDFTLTISTLEPEDFAVYYCQQRDHWPLNFGGGTKVEVK
notes: Expressed as human IgG4/kappa in 293F or Expi293 cells; also called 319-9-53

- Kd [3]: 3.4 nM
- koff [3]: 0.0013 s⁻¹
- kon [3]: 387000 M⁻¹ s⁻¹
B4: 17D8 antibody (antibody, V domains shown)
VH: QVQLVESGGDVVQPGGSLRLSCAASGVAFSNYGMHWVRQAPGKGLEWVAVIWYDGSNKYYADSVKGRFTISRDNSKNMLYLQMNSLRAEDTAMYYCARNDDYWGQGTLVTVSS
VL: EIVLTQSPATLSLSPGERATLSCRASQSVSSYLAWYQQKPGQAPRLIIYDASNRATGIPARFSGSGSGTDFTLTISSLEPEDFAVYYCQQRSNWPLTFGGGTKVEIK
notes: Prototype anti-PD1 antibody (U.S. Pat. No. 8,008,449 B2); Produced as human IgG4/kappa; His-tagged for ELISA, untagged for Biacore

- binding result [4]: binds
- binding result [5]: binds
B5: M2-3 (antibody, V domains shown)
VH: QGHLVESGGDVVLPGGSLRLSCTESGVDLSDFGIHWVRQTPGKGLEWVALIWYDGSKKFYADSVKDRFTISRDNSKNMVYLEMISLRVEDTAMYFCARGIRRGPWFTYWGPGTLVTVST
VL: EIVLTQSPVILSLSPGERATLSCRASQSISSDLAWFQQTPGQAPRLIIYDASNRATGIPARFSGSGSGTDFTLTISSLEPEDFAVYYCQQRSNWPLTFGGGTKVEIK
notes: Expressed as human IgG4/kappa in 293F or Expi293 cells; also called 397-27-25

- binding result [1]: binds
- binding result [2]: binds
B6: M2-5 (antibody, V domains shown)
VH: QVQLVESGGDVVQPGGSLRLSCAASGVVFSDYGLYWVRQAPGKGLEWVALIWYDGSKKFYADSVKGRFSISRDNSKNMLYLQMNNLRADDSAIYYCSRGIRQGPWFAYWGQGTRVTVSP
VL: EIVLTQSPATLSLSPGERATLSCRASQSISSDLTWFQQKPGQAPRLIIYDASNRATGIPARFSGSGSGTDFTLTISSLEPEDFVVYYCLQRSDWPLTFGGGTKVEIK
notes: Expressed as human IgG4/kappa in 293F or Expi293 cells; also called 397-27-93

- Kd [3]: 3.7 nM
- koff [3]: 0.00074 s⁻¹
- kon [3]: 199000 M⁻¹ s⁻¹
B7: M2-1 (antibody, human IgG4, V domains shown)
VH: QVQLVESGGDVVQPGGSLRLSCSASGLVFRDYGMNWVRQAPGKGLEWVGLIWYDGTKKYYSDFVKGRFTISRDNSKNMLYLQMNNLRAEDTAIYYCARFLIGATRRGNAMDYWGQGTSVIVSS
VL: EVVLTQSPATLSLSPGERATLSCRASQSIDSDLAWSQQKTGQPPRLIIYDASNRATGIPARFSGSGSGTDFTLTISSLEPEDFAVYYCQQRSDWPLTFGGGTKVEIR
notes: Expressed as human IgG4/kappa; without His tag and Protein A purified for Biacore; also called 397-27-3

- Kd [3]: 2.1 nM
- koff [3]: 0.0021 s⁻¹
- kon [3]: 995000 M⁻¹ s⁻¹
B8: M1-5 (antibody, human IgG4, V domains shown)
VH: QVQLVESGGDVVQPGGSLRLSCTVSGAVFRDLGMEWVRQAPGKGLEWLAVIWYDGGRKHYADSVKGRFTISRDNSRNMLFLQMNGLRVDDTAMYYCTRSHSTDDYWGQGTLVTVSS
VL: EIVLTQSPATLSVSPGERATLSCRASQSISSDLAWFQQKPGQAPRLIIHGASKRATGIPARFSGSGSGTDFTLTISSLEPEDFAVYYCQQRDSWPLNFGGGTKVEIK
notes: Expressed as human IgG4/kappa; without His tag and Protein A purified for Biacore; also called 319-9-34

- binding result [4]: binds
- binding result [5]: binds
B9: M1-1 (antibody, V domains shown)
VH: QVQLVESGGDVVQPGGSLRLSCAASGVAFRDYGMHWVRQAPGKGLEWVAVIWYDGSKKYYGDSVKGRFTVSRDNSKNMLYLEMNGLKAEDTAMYYCARNDDYWGQGTLVTVSS
VL: EIVLTQSPATLSLSPGERATLSCRASQSVSNSLSWYQQNPGQSPRLIIYDTSKRATGIPARFSGSGSGTDFTLTINNLETEDFAVYYCHQRSDWPLTFGGGTKVEIK
notes: Expressed as human IgG4/kappa in 293F or Expi293 cells; retains the CDR H3 of 17D8; also called 319-9-8

- binding result [1]: binds
- binding result [2]: binds
B10: M2-4 (antibody, V domains shown)
VH: QVQLVESGGDVVQPGGSLRLSCAASGVAFRNYGMHWVRQAPGKGLEWVAIIWYDGSNKYYADSVKGRFTISRDNSKNMLYLQMNSLRAEDTAMYYCARLSIGTTHYFDTDDYWGQGTSVTVSS
VL: EIVLTQSPATLSLSPGERATLSCRASQSVSSYLAWYQQKVGQAPRLIIFDASNRATGIPARFSGSGSGTDFTLTITSLDPEDFAVYYCQQRSAWPLTFGGGTKVEIR
notes: Expressed as human IgG4/kappa; 6xHis tag at the C-terminus of the Fc for ELISA

- binding result [1]: binds
- binding result [2]: binds
B11: M2-2 (antibody, V domains shown)
VH: QVQLVESGGDVVQPGGSLRLSCSASGLVISDYGMNWVRQAPGKGLEWVGLIWYDGSKKYYSDFVKGRFTISRDNSKNILYLQMNNLRAEDTAMYYCARFLIGATRRGNAMDYWGQGTSVTVSS
VL: EVVLTQSPATLSLSPGERATLSCRASQSIDSDLAWSQQKPGQPPRLIIYDASNRATGIPARFSGSGSGTDFTLTISSLEPEDFAVYYCQQRSDWPLTFGGGTKVEIR
notes: Expressed as human IgG4/kappa in 293F or Expi293 cells; also called 397-27-23

- binding result [4]: binds
- binding result [5]: binds
B12: M1-7 (antibody, V domains shown)
VH: QLQLVESGGDVVQPGGSLRLSCAASGVVFSDFGLEWVRQAPGKGLEWLAVIWYDGSRKHYADSVKGRFTISRDNSKNMLYLQMNSLRVEDTAMYYCARCHSKEDYWGQGTLVTVSS
VL: EIEVTQSPATLSLSPGERATLSCRASQSIDTDLAWFQQRPGQTPRLIIYDASKRATGIPARFSGGGSGTDFTLTISSLEPEDFAVYYCQQRTTWPLTFGGGTKVEIK
notes: Expressed as human IgG4/kappa in 293F or Expi293 cells; also called 319-9-75

- binding result [1]: binds
- binding result [2]: binds
B13: M1-2 (antibody, V domains shown)
VH: QVQLVESGGDVVQPGGSLRLSCAASGVAFSDYGMEWVRQAPGKGLEWLAVIWYDGSRKHYADSVKGRFTISRDNSKNILYLQMNSLRAEDTAMYYCARCHSKDDYWGQGTLVTVSS
VL: EIVLTQFPATLSLSPGERATLSCRTSQNIDSDLAWFQQKPGQAPRLIIYDASNRATGIPARFSGGGSGTDFTLTITSLEPEDFAVYYCQQRTTWPLTFGGGTKVEIK
notes: Expressed as human IgG4/kappa in 293F or Expi293 cells; also called 319-9-15
